41 sequences from the nanobody polyreactivity screen of Harvey et al. (2022) can be followed below.

This series is described as follows: yeast display, Sf9 membrane polyspecificity reagent, FACS + sequencing; frameworks hold sequencing errors. In short, it runs like this:
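After 36–48 hours of galactose induction, yeast (Saccharomyces cerevisiae BJ5465) displaying a synthetic nanobody library were stained at 4 °C for 1 hour with 10% biotinylated, detergent-solubilized Sf9 membrane reagent. Streptavidin microbeads enriched the stained cells before FACS sorting into low and high (top ~1%) gates on anti-HA and streptavidin fluorescence. Each clone's polyreactivity label reflects its gate of origin.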
Take “QVQLVESGGGLVQAGGSLRLSCAASGSTFSGYAMGWYRQAPGKERELVGAISSSGGRTNYADSVKGRFTISRDNAKNTVYLQMNSLKPEDTAVYYCASVGPRTEYSGYRYYYWGQGTQVTVSS”: the “polyreactivity (PSR sort gate)” value is given as “high polyreactivity”. “QVQLVESGGGLVQAGGSLRLSCAASGSTFSGYAMRWYRQAPGKERELVATITRRGGNTYDADSVKGGFTISRDNAKNTVYLQMNSLKPEDTAVYYCAKEGRVQSPYHYWGQGTQVTVSS”: the “polyreactivity (PSR sort gate)” value is recorded as “low polyreactivity”.

Regarding “QVQLVESGGGLVQAGGSLRLSCAASGSTFSHNAMGWYRQAPGKERELVAAISWSGGRTYADSVKGRFTISRDNAKNTVYLQMNSVKPDDTAVYYCNKVSYPSTSSSWFDYWGQGTQVTVSS”, the “polyreactivity (PSR sort gate)” value is “low polyreactivity”. The value for “QVQLVESGGGLVQAGGSLRLSCAASGSTFSIYAMGWSRQAPGKERELVAAITGTVGSTYYADSVKGRFTISRDNAKNTVYLQMNSLNPEDTAVYYCAARQVNYDYDYWGQGTQVTVSS” was “low polyreactivity”; that for “QVQLVESGGGLVQAGGSLRLSCAASGSTFSIYARGWYRPAPGKERELVAAIRWSGGRTYYADSVKGRFTISRDNAKNTVYLQMNSLKPEDTAVYYCAAESTGSGYDYWGQGTQVTVSS” was “high polyreactivity”. “QVQLVESGGGLVQAGGSLRLSCAASGSTFSKNGMGWYRQAPGKERELVAAITVNGGSTSYADSVKGRFTISRDNAKNTVYLQMNSLKPEDTAVYYCARRRYSKYYYWGQGTQVTVSS”: the “polyreactivity (PSR sort gate)” value is on record as “high polyreactivity”.

Take “QVQLVESGGGLVQAGGSLRLSCAASGSTFSKYAMGWYRPAPGKERELVAAISSRGGSTYYADSVKGRFTISRDNAKNTVYLQMNSLKPEDTAVYYCATYYVYKLYYWGQGTQVTVSS”: the “polyreactivity (PSR sort gate)” value was “high polyreactivity”. As for “QVQLVESGGGLVQAGGSLRLSCAASGSTFSLNAMGWYRQAPGKERELVAAITRSGGSTYYADSVKGRFTISRDNAKNTVYLQMNSLKPEDTAVYYCAALPRWSHRYDDWGQGTQVTVSS”, the “polyreactivity (PSR sort gate)” value was “high polyreactivity”. Then “QVQLVESGGGLVQAGGSLRLSCAASGSTFSLYMGWYRQAPGKERELVAAITYSGGRTYYADSVKGRFTITLDNAKNTFYLQMNSVNPEDTAVYYCATVFNDLTVYEDWSRFDYWGQGTQVTVSS”, with “low polyreactivity”; and “QVQLVESGGGLVQAGGSLRLSCAASGSTFSNNAMGWYRQAPGKERELVAAITRRGTSTYYADSVKGRFTISRDNAKNTVYLQMISLKPEDTAVYYCAAVYKLRHKRPSYGSWGQGTQVTVSS”, with “high polyreactivity”. Regarding “QVQLVESGGGLVQAGGSLRLSCAASGSTFSNNAMGWYRQAPGKERELVATISQSGGSTYYADSVKGRFTISRDNAKNTVYLQMNSLKPEDTAVYYCNAESYLTGWWYDYWGQGTQVTVSS”, the “polyreactivity (PSR sort gate)” value is “high polyreactivity”.

Consider “QVQLVESGGGLVQAGGSLRLSCAASGSTFSNYAMGWYRQAPGKERELVAGIDWSGGSTYYADSVKGRFTISRDNAKNTVYLQMNSLKPEDTAVYYCAKRVWYHGRKLRGYYWGQGTQVTVSS”, for which the “polyreactivity (PSR sort gate)” value is given as “low polyreactivity”.

On to “QVQLVESGGGLVQAGGSLRLSCAASGSTFSPNDMGWYRQAPGKERELVADNSNYADSVKGRFTISRDNAKNTVYLQMNSLKPEDTAVYYCAAEWRGDRYRLYVVSWWYDYWGQGTQVTVSS”, for which the “polyreactivity (PSR sort gate)” value is given as “low polyreactivity”.

Turning to “QVQLVESGGGLVQAGGSLRLSCAASGSTFSPYAMGWYRQAPGKERELVADISWPGGTTYYADSVKGRFTISRDNAKNTVYLQMNSLKPEDTAVYYCAVTYWDYTFQITYEYWGQGSQVTVSS”, the “polyreactivity (PSR sort gate)” value was “low polyreactivity”. In the case of “QVQLVESGGGLVQAGGSLRLSCAASGSTFSPYAMGWYRQAPGKERELVANITISGGSTYYADSVKGRFTISRDTAKNTVYLQMNSLKPEDTAVYYCNADSLIRWLFTVVILDYWGQGTLVTVSS”, the “polyreactivity (PSR sort gate)” value is “low polyreactivity”. The value for “QVQLVESGGGLVQAGGSLRLSCAASGSTFSPYGMGWYRQAPGKERELVAAIRGRGGNTYYADSVKGRFTISRDNAKNTVYLQMNSLKPEDTAVYYCAAQSFAQYGWRYGDWGQGTQVTVSS” was “high polyreactivity”; that for “QVQLVESGGGLVQAGGSLRLSCAASGSTFSPYTMGWYRQAPGKERELVAAITWSGVTTYYADSVKGRFTISRDNAKNTVYLQMNSLKPEDSAVYYCAAGRTRRKFDYWGQGTQVTVSS” was “low polyreactivity”; that for “QVQLVESGGGLVQAGGSLRLSCAASGSTFSRYAMGWYRQAPGKERELVAAISSSGGSTYYADSVKGRFTISRDNAKNTVYLQMNSLKPEDTAVYYCAVAVNGVSRIKYYYWGQGTQVTVSS” was “high polyreactivity”. As for “QVQLVESGGGLVQAGGSLRLSCAASGSTFSRYAMGWYRQAPGKERELVAAISWRGGRTYYADSVKGRFTISRDNAKNTVYLPMNSLKPEDTAVYYCNAVSSFTSPRYAYWGQGTQVTVSS”, the “polyreactivity (PSR sort gate)” value is listed as “high polyreactivity”. Turning to “QVQLVESGGGLVQAGGSLRLSCAASGSTFSRYAMGWYRQAPGKEREMVAAINTRGGSTYYADSVKGRFTISRDNSKNTVYLQMNSLKPEDTAVYYCARRFYGFGPYYPFDYWGQGTQVTVSS”, the “polyreactivity (PSR sort gate)” value is “low polyreactivity”. For the sequence “QVQLVESGGGLVQAGGSLRLSCAASGSTFSRYTMGWYRQAPGKERELVAAIRRSGASTYYADSVKGRFTISRDNAKITVYLQMNSLKPEDTAVYYCAVGRYRYGYWGHGTQVTVSS”, the “polyreactivity (PSR sort gate)” value is on record as “high polyreactivity”. On to “QVQLVESGGGLVQAGGSLRLSCAASGSTFSSNAMGWYRQAPGKERELVAAITGSGGSTYYADSVKGRFTISRDNAKNTVYLQMNSLKPEDTAVYYCAAKWYGITYKYEYWGQGTQVTVSS”, for which the “polyreactivity (PSR sort gate)” value was “high polyreactivity”. For the sequence “QVQLVESGGGLVQAGGSLRLSCAASGSTFSSNTMGWYRQAPGKERELVAAITTGGDTYYADSVKGRFTISRDNAKNTVYLQMNSLKPEDTAVYYCAATPTYWYLWSPYDYWGQGTQVTVSS”, the “polyreactivity (PSR sort gate)” value is recorded as “low polyreactivity”. As to “QVQLVESGGGLVQAGGSLRLSCAASGSTFSSNTMGWYRQAPGKEREMVAAITRRGGSTYYADSVKGRFTISRDNAKNTVYLQMNCLKPEDTAVYYCAARAYGGYGYWGQGTQVPVSS”, the “polyreactivity (PSR sort gate)” value was “low polyreactivity”. Turning to “QVQLVESGGGLVQAGGSLRLSCAASGSTFSSNVMGWYRQAPGKERELVAAITGSGSRTYYADSVKGRFTISRDNAKNTVYLQMNSLKPEDTAVYYCNTKGRSRETYGYDYWGQGTQVTVSS”, the “polyreactivity (PSR sort gate)” value is “high polyreactivity”. Then “QVQLVESGGGLVQAGGSLRLSCAASGSTFSSYAMGWYRQAPGKDRELVAAISSRGGRTYYADSVKGRFTISRDNAKNTVYLQMNSLKPEDTAVYYCNAPTSALRQGKDYGYWGQGTQVTVSS”, with “high polyreactivity”; and “QVQLVESGGGLVQAGGSLRLSCAASGSTFSSYAMGWYRQAPGKERELVAAINWSGGRTYYADSVKGRFTISRDNAKNTVYLQMNSLKPEDTAVYYCAAVGVYTYPYDYWGQGTQVTVSS”, with “high polyreactivity”; and “QVQLVESGGGLVQAGGSLRLSCAASGSTFSSYAMGWYRQAPGKERELVAAISTRSGSTYYADSVKGRFTISRDNAKNTVYLQMNSLKPEDTAVYYCAADGFYYDDGYWGQGTQVTVSS”, with “low polyreactivity”. The value for “QVQLVESGGGLVQAGGSLRLSCAASGSTFSSYGMGWYRQAPGKERELVAAISKRGGSTYYADSVKGRFTISRDNAKNTVYLQMNSLKPEDTAVYYCAAAVRKQGYSTLFDYWGQGTQVTVSS” was “high polyreactivity”; that for “QVQLVESGGGLVQAGGSLRLSCAASGSTFSSYVMGWDRQARGKERELVAAISSIGGSTYYADSVKGRFTISRDNAKNTVYLQMNSLKPEDTAVYYCAAEPPGSTYEGGYWGQGTQVTVSS” was “low polyreactivity”; that for “QVQLVESGGGLVQAGGSLRLSCAASGSTFSTNAMGCYRQAPGKERELVAAISGRGGRTYYADSVKGRFTISRDNAKNTVYLQMTSLKPEDTAVYYCNTDSYLRMDYWGQGTQVTVSS” was “high polyreactivity”.

As for “QVQLVESGGGLVQAGGSLRLSCAASGSTFSTNAMGWYRQAPGQERELVAAISSSSGRTYYADSVKGRFTISRDNAKNTVYLQMNSLKPEDTAVYYCAAANQGYRSGRKGVQRFDYWGQGTQVTVSS”, the “polyreactivity (PSR sort gate)” value is “high polyreactivity”.

With “QVQLVESGGGLVQAGGSLRLSCAASGSTFSTNFMGWYRQAPGKERELVAAISTIGGSTYADSVKGRFTISRDNAKNTVYLQMNSLKPEDTAVYYCAAVFRVRRKTYGYWGQGTQVTVSS”, the “polyreactivity (PSR sort gate)” value is listed as “high polyreactivity”. Take “QVQLVESGGGLVQAGGSLRLSCAASGSTFSTNVMGWSRQAPGKERELVAAISTIGGSTYADSVKGRFTISRDNAKNSVYLQMNSLKPEDTAVYDCAATRRWYPTKLYGYWGQGTQVTVSS”: the “polyreactivity (PSR sort gate)” value is listed as “high polyreactivity”. Turning to “QVQLVESGGGLVQAGGSLRLSCAASGSTFSTYAMGWSRLAPGKERELVATISKRGGSTYYADSVKGRFTISRDNAKNTVYLQMNSLKPEDTAVYYCAARWQWLNGYYYWGQGTQVTVSS”, the “polyreactivity (PSR sort gate)” value was “high polyreactivity”. Consider “QVQLVESGGGLVQAGGSLRLSCAASGSTFSTYAMGWYRQAPGKERELVAAISRTGGSTYYADSVKGRFTISRDNAKNTVYLQMNSLKPEDTAVYYCATGDSGGYDYWGQGTQVTVSS”, for which the “polyreactivity (PSR sort gate)” value is “low polyreactivity”. The value for “QVQLVESGGGLVQAGGSLRLSCAASGSTFSVYAMGWYRQAPGKERELVAAITWSGGSTYYADSVKGRFTISRDNAKNTVYLQMNSLKPEDTAVYYCAARYGRIHWKANWPEYGYWGQGTQVTVSS” was “low polyreactivity”; that for “QVQLVESGGGLVQAGGSLRLSCAASGSTFSVYAMGWYRQAPGKERELVADNTRGGSTYADSVKGRFTISRDNAKNTVYLQMNSLKPEDTAVYYCAREEVTPYPLYWSTREYDYWGQGTQVTVSS” was “low polyreactivity”; that for “QVQLVESGGGLVQAGGSLRLSCAASGSTFSVYAMGWYRQAPGKERELVATITWNGGRTYYADSVKGRFTISRDNAKNTVYLQMNSLKREDTAVYYCASPWLKPGNGIYGGYGYWGQGTQVTVSS” was “high polyreactivity”.

As to “QVQLVESGGGLVQAGGSLRLSCAASGSTFSWNTMGWYRQAPGNERELVAAINSGGSTYYADSVKGRFTISRDNAKNTVYLQMNSLIPEDTAVYYCASRTKYYGRFDYWGQGTQVTVSS”, the “polyreactivity (PSR sort gate)” value is reported as “low polyreactivity”. The value for “QVQLVESGGGLVQAGGSLRLSCAASGSTFSYNAMGWYIQAPGKERELVAAISWSGGSTYYADSVKGRFTISRDYAKNTVYLQMNSLKPEDTAVYYCAADSPYGYYEGDYWGQGTQVTVSS” was “low polyreactivity”.
